Data on two molecules can be found in PMC11043367.

In test [1] the target is human parechovirus 1 (PeV-A1) particles, Harris strain. As to the kind of experiment: co-immunoprecipitation with anti-HA beads, RT-qPCR of viral RNA. The settings on record: IP, read off a plot. On the technique in general: Real-time PCR tracks product formation cycle by cycle.
The target in test [2] is T1, Flag-tagged PeV-A1 virus particles.
T1 chain 1: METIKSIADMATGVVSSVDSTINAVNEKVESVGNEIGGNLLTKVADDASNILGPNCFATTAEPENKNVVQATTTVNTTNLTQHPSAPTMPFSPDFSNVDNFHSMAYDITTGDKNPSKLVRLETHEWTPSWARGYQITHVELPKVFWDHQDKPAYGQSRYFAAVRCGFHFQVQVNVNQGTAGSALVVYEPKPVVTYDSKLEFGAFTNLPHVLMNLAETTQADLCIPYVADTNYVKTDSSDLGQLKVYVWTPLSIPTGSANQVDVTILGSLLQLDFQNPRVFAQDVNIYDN
T1 chain 2: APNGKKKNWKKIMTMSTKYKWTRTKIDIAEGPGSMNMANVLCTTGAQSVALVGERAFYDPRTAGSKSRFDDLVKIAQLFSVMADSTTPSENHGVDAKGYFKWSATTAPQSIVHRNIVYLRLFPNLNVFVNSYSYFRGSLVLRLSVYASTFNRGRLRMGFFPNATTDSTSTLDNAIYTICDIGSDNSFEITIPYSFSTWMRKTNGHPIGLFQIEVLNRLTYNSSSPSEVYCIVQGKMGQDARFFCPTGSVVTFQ
T1 chain 3: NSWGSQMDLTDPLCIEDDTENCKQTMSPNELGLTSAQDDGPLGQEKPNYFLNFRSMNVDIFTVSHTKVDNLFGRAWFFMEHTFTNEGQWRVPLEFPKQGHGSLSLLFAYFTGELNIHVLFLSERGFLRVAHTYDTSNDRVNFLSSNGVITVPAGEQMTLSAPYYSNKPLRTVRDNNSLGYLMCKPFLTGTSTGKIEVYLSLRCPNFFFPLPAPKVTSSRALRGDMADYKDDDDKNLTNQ
The test is described as follows: pH-dependent virus particle binding assay (anti-HA immunoprecipitation), RT-qPCR of viral RNA. The settings on record: chain shown with the change, read off a plot.

As for “human MYADM (myeloid-associated differentiation marker), HA-tagged (from UniProt Q96S97) D276E; V277H; S278N”, the response (relative to Vero) in test [1] (0 min after infection, parent: est. 25) amounted to 5; in test [1] (15 min after infection, 37 °C, parent: est. 52) it was 1.5; in test [1] (30 min after infection, 37 °C, parent: est. 60) it was 5.

B1: human MYADM (myeloid-associated differentiation marker), HA-tagged, Q96S97 D276E; V277H; S278N (protein)
chain: MPVTVTRTTITTTTTSSSGLGSPMIVGSPRALTQPLGLLRLLQLVSTCVAFSLVASVGAWTGSMGNWSMFTWCFCFSVTLIILIVELCGLQARFPLSWRNFPITFACYAALFCLSASIIYPTTYVQFLSHGRSRDHAIAATFFSCIACVAYATEVAWTRARPGEITGYMATVPGLLKVLETFVACIIFAFISDPNLYQHQPALEWCVAVYAICFILAAIAILLNLGECTNVLPIPFPSFLSGLALLSVLLYATALVLWPLYQFDEKYGGQPRRSREHNCSRSHAYYVCAWDRRLAVAILTAINLLAYVADLVHSAHLVFVKV
For B1, the response (relative to Vero) stood at 1 in test [2] (virus particle IP buffer pH 5.5, parent: est. 3.0); 1 in test [2] (virus particle IP buffer pH 6.0, parent: est. 6.2); 1 in test [2] (virus particle IP buffer pH 6.5, parent: est. 5.3); 1.1 in test [2] (virus particle IP buffer pH 7.4, parent: est. 1.1).
